Data from the supplement of paper PMC9112550, “Optimization of the antimicrobial peptide Bac7 by deep mutational scanning” (BMC Biology, 2022).

System: Escherichia coli TOP10
Experiment: shrunken log2 fold change of peptide-encoding DNA abundance (4.5 h post-induction vs induction); higher = less antimicrobial activity (less host growth inhibition)
Settings: time post-induction: 4.5 h; library: site-saturation at positions 5, 18, 19, 20
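Further: peptides expressed intracellularly from a pBAD plasmid library in pooled LB shake-flask culture, induced with 0.3% L-arabinose, DNA abundance read by NGS, three biological replicates, DESeq2 with apeglm shrinkage.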

Sequence	shrunken log2 fold change
RRIRLRPPRLPRPRPRPKMRPRP	0.608
RRIRWRPPRLPRPRPRPIQSPRP	0.245
RRIRWRPPRLPRPRPRPWIHPRP	-0.192
RRIRTRPPRLPRPRPRPDVKPRP	-0.521
RRIRNRPPRLPRPRPRPASDPRP	0.278
RRIRRRPPRLPRPRPRPAAIPRP	0.181
RRIRRRPPRLPRPRPRPTLKPRP	0.379
RRIRERPPRLPRPRPRPEMFPRP	0.232
RRIRWRPPRLPRPRPRPNQRPRP	0.181
RRIRWRPPRLPRPRPRPQEVPRP	-0.0144
RRIRWRPPRLPRPRPRPYVIPRP	-0.0496
RRIRERPPRLPRPRPRPMHWPRP	-0.0407
RRIRYRPPRLPRPRPRPHHDPRP	-0.917
RRIRARPPRLPRPRPRPANSPRP	0.329
RRIRSRPPRLPRPRPRPWHFPRP	-0.0226
RRIRPRPPRLPRPRPRPPNQPRP	0.282
RRIRWRPPRLPRPRPRPSPLPRP	-0.26
RRIRRRPPRLPRPRPRPAPDPRP	1.65
RRIRYRPPRLPRPRPRPRIEPRP	0.0242
RRIRGRPPRLPRPRPRPCYMPRP	-0.328
RRIRWRPPRLPRPRPRPFRQPRP	-0.0956
RRIRARPPRLPRPRPRPKSEPRP	1.22
RRIRRRPPRLPRPRPRPAPVPRP	1.06
RRIRQRPPRLPRPRPRPCSAPRP	-0.257
RRIRIRPPRLPRPRPRPCYCPRP	-0.0457

Sequence	shrunken log2 fold change
RRIRERPPRLPRPRPRPMPYPRP	-0.0164
RRIRARPPRLPRPRPRPPMGPRP	0.358
RRIRVRPPRLPRPRPRPINHPRP	-0.464
RRIRERPPRLPRPRPRPSLNPRP	-0.181
RRIRGRPPRLPRPRPRPIWMPRP	0.245
RRIRVRPPRLPRPRPRPCSSPRP	-0.201
RRIRMRPPRLPRPRPRPLFYPRP	-0.305
RRIRKRPPRLPRPRPRPVIFPRP	0.265
RRIRPRPPRLPRPRPRPQNCPRP	-0.621
RRIRMRPPRLPRPRPRPAMFPRP	0.388
RRIRQRPPRLPRPRPRPLMAPRP	-0.0462
RRIRCRPPRLPRPRPRPTIFPRP	-0.626
RRIRTRPPRLPRPRPRPPDAPRP	0.232
RRIRARPPRLPRPRPRPSIDPRP	-0.0466
RRIRHRPPRLPRPRPRPKKDPRP	-0.494
RRIRMRPPRLPRPRPRPIWMPRP	-0.101
RRIRLRPPRLPRPRPRPNMLPRP	-0.58
RRIRGRPPRLPRPRPRPADHPRP	0.625
RRIRTRPPRLPRPRPRPNGSPRP	-0.198
RRIRLRPPRLPRPRPRPSMNPRP	-0.345
RRIRKRPPRLPRPRPRPMSFPRP	0.106
RRIRCRPPRLPRPRPRPEVQPRP	0.267
RRIRDRPPRLPRPRPRPGWSPRP	0.104
RRIRDRPPRLPRPRPRPLSVPRP	-0.0465
RRIRYRPPRLPRPRPRPCMIPRP	-0.731

Sequence	shrunken log2 fold change
RRIRFRPPRLPRPRPRPSMHPRP	-0.291
RRIRRRPPRLPRPRPRPTVHPRP	0.231
RRIRFRPPRLPRPRPRPFSGPRP	-0.0879
RRIRNRPPRLPRPRPRPVHGPRP	-0.0581
RRIRSRPPRLPRPRPRPHRYPRP	-0.606
RRIRSRPPRLPRPRPRPMWCPRP	0.136
RRIRFRPPRLPRPRPRPPVPPRP	0.859
RRIRCRPPRLPRPRPRPWRSPRP	-0.0803
RRIRYRPPRLPRPRPRPASSPRP	-0.0244
RRIRVRPPRLPRPRPRPLWCPRP	-0.303
RRIRKRPPRLPRPRPRPEKTPRP	-0.000942
RRIRFRPPRLPRPRPRPICYPRP	0.00889
RRIRMRPPRLPRPRPRPMYKPRP	-0.472
RRIRNRPPRLPRPRPRPFNMPRP	-0.149
RRIRRRPPRLPRPRPRPVQIPRP	0.14
RRIRMRPPRLPRPRPRPGVVPRP	0.761
RRIRKRPPRLPRPRPRPTTDPRP	0.385
RRIRRRPPRLPRPRPRPTPAPRP	1.55
RRIRNRPPRLPRPRPRPHDAPRP	-0.116
RRIRKRPPRLPRPRPRPNSKPRP	0.0385
RRIRVRPPRLPRPRPRPTHSPRP	0.156
RRIRFRPPRLPRPRPRPLEVPRP	0.0238
RRIRKRPPRLPRPRPRPRKFPRP	0.106
RRIRTRPPRLPRPRPRPACDPRP	0.139
RRIRNRPPRLPRPRPRPGWHPRP	-0.154

Sequence	shrunken log2 fold change
RRIRWRPPRLPRPRPRPNCHPRP	0.0398
RRIRYRPPRLPRPRPRPKNIPRP	-0.127
RRIRKRPPRLPRPRPRPHKQPRP	0.164
RRIRQRPPRLPRPRPRPTWPPRP	0.268
RRIRQRPPRLPRPRPRPPYCPRP	0.0161
RRIRNRPPRLPRPRPRPQPRPRP	0.507
RRIRGRPPRLPRPRPRPDYVPRP	0.66
RRIRSRPPRLPRPRPRPMSFPRP	-0.374
RRIRVRPPRLPRPRPRPPNDPRP	-0.17
RRIRTRPPRLPRPRPRPHINPRP	-0.454
RRIRCRPPRLPRPRPRPWYSPRP	-0.361
RRIRTRPPRLPRPRPRPTYHPRP	-0.291
RRIRMRPPRLPRPRPRPPEPPRP	0.296
RRIRSRPPRLPRPRPRPKHQPRP	0.155
RRIRKRPPRLPRPRPRPRYWPRP	0.173
RRIRLRPPRLPRPRPRPCGDPRP	-0.00813
RRIRLRPPRLPRPRPRPGQNPRP	-0.18
RRIRPRPPRLPRPRPRPYCSPRP	-0.294
RRIRYRPPRLPRPRPRPQFGPRP	0.03
RRIRHRPPRLPRPRPRPNYGPRP	-0.0744
RRIRNRPPRLPRPRPRPMLYPRP	-0.318
RRIRSRPPRLPRPRPRPALYPRP	-0.124
RRIRSRPPRLPRPRPRPSTQPRP	2.48
RRIRLRPPRLPRPRPRPGIRPRP	0.0174
RRIRNRPPRLPRPRPRPDYKPRP	0.0574

Sequence	shrunken log2 fold change
RRIRPRPPRLPRPRPRPDGAPRP	0.159
RRIRWRPPRLPRPRPRPKWHPRP	0.184
RRIRKRPPRLPRPRPRPIGTPRP	0.105
RRIRYRPPRLPRPRPRPQYDPRP	-0.0291
RRIRGRPPRLPRPRPRPQTYPRP	0.0285
RRIRKRPPRLPRPRPRPVRTPRP	0.583
RRIRARPPRLPRPRPRPQIRPRP	0.0717
RRIRQRPPRLPRPRPRPYSEPRP	0.0294
RRIRDRPPRLPRPRPRPMVKPRP	0.115
RRIRTRPPRLPRPRPRPGHYPRP	-0.137
RRIRCRPPRLPRPRPRPWENPRP	0.0328
RRIRHRPPRLPRPRPRPVRSPRP	0.172
RRIRFRPPRLPRPRPRPMDSPRP	-0.398
RRIRERPPRLPRPRPRPFCSPRP	-0.204
RRIRFRPPRLPRPRPRPSEWPRP	-0.028
RRIRRRPPRLPRPRPRPMHMPRP	0.121
RRIRIRPPRLPRPRPRPCEMPRP	0.0583
RRIRMRPPRLPRPRPRPCFYPRP	-0.16
RRIRNRPPRLPRPRPRPVFDPRP	-0.152
RRIRSRPPRLPRPRPRPYKCPRP	-0.137
RRIRHRPPRLPRPRPRPQMLPRP	-0.0829
RRIRPRPPRLPRPRPRPRDLPRP	0.172
RRIRRRPPRLPRPRPRPPSNPRP	0.0633
RRIRERPPRLPRPRPRPVYFPRP	-0.207
RRIRSRPPRLPRPRPRPSDGPRP	-0.124
